From paper PMC12416549 (2024)
Numbering of substitutions follows the chain as printed. Names may count otherwise.

T1: TNFR1 (Homo sapiens, UniProt P19438)
T1 chain: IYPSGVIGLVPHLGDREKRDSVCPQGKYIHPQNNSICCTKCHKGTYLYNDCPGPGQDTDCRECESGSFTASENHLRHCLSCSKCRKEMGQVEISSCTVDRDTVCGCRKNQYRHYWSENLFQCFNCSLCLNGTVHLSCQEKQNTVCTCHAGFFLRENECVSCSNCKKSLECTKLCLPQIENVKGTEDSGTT

B1: L74H (designed binder)
chain: MTLQELLREEALRRAEAEAFRYALELLAEKFPEQKEYLLDLAEEIESQIRSLSGVDVEDVRKFLDKEWAWVKEHLAEHPAELAEVEAARAARLAELRAEVEAKVAA
B2: E43V (designed binder)
chain: B1 chain with E43V, H74L
B3: E46R (designed binder)
chain: B1 chain with E46R, H74L
B4: Q48C (designed binder)
chain: B1 chain with Q48C, H74L
B5: E84C (designed binder)
chain: B1 chain with H74L, E84C
B6: E77I (designed binder)
chain: B1 chain with H74L, E77I
B7: A80W (designed binder)
chain: B1 chain with H74L, A80W
B8: E25C (designed binder)
chain: B1 chain with E25C, H74L
B9: I49P (designed binder)
chain: B1 chain with I49P, H74L
B10: E10F (designed binder)
chain: B1 chain with E10F, H74L
B11: E18A (designed binder)
chain: B1 chain with E18A, H74L
B12: R50C (designed binder)
chain: B1 chain with R50C, H74L
B13: Q4W (designed binder)
chain: B1 chain with Q4W, H74L
B14: H78T (designed binder)
chain: B1 chain with H74L, H78T
B15: A91Y (designed binder)
chain: B1 chain with H74L, A91Y
B16: L39W (designed binder)
chain: B1 chain with L39W, H74L
B17: F20D (designed binder)
chain: B1 chain with F20D, H74L
B18: E99A (designed binder)
chain: B1 chain with H74L, E99A
B19: L7I (designed binder)
chain: B1 chain with L7I, H74L
B20: R21L (designed binder)
chain: B1 chain with R21L, H74L
B21: E81M (designed binder)
chain: B1 chain with H74L, E81M
B22: E5K (designed binder)
chain: B1 chain with E5K, H74L
B23: D59G (designed binder)
chain: B1 chain with D59G, H74L
B24: E58A (designed binder)
chain: B1 chain with E58A, H74L
B25: M1G (designed binder)
chain: B1 chain with M1G, H74L
B26: E95D (designed binder)
chain: B1 chain with H74L, E95D
B27: E81C (designed binder)
chain: B1 chain with H74L, E81C
B28: R92A (designed binder)
chain: B1 chain with H74L, R92A
B29: S51W (designed binder)
chain: B1 chain with S51W, H74L
B30: V100Y (designed binder)
chain: B1 chain with H74L, V100Y
B31: A76V (designed binder)
chain: B1 chain with H74L, A76V
B32: L82P (designed binder)
chain: B1 chain with H74L, L82P
B33: A88I (designed binder)
chain: B1 chain with H74L, A88I
B34: K35P (designed binder)
chain: B1 chain with K35P, H74L
B35: L6F (designed binder)
chain: B1 chain with L6F, H74L
B36: A69L (designed binder)
chain: B1 chain with A69L, H74L
B37: E73F (designed binder)
chain: B1 chain with E73F, H74L
B38: D65R (designed binder)
chain: B1 chain with D65R, H74L
B39: L3Q (designed binder)
chain: B1 chain with L3Q, H74L
B40: Y22F (designed binder)
chain: B1 chain with Y22F, H74L
B41: E99Y (designed binder)
chain: B1 chain with H74L, E99Y
B42: E58D (designed binder)
chain: B1 chain with E58D, H74L
B43: A19C (designed binder)
chain: B1 chain with A19C, H74L
B44: S51T (designed binder)
chain: B1 chain with S51T, H74L
B45: A90H (designed binder)
chain: B1 chain with H74L, A90H
B46: L26C (designed binder)
chain: B1 chain with L26C, H74L
B47: Q48R (designed binder)
chain: B1 chain with Q48R, H74L
B48: A87C (designed binder)
chain: B1 chain with H74L, A87C
B49: R21T (designed binder)
chain: B1 chain with R21T, H74L
B50: A42T (designed binder)
chain: B1 chain with A42T, H74L
B51: Y22L (designed binder)
chain: B1 chain with Y22L, H74L
B52: S53R (designed binder)
chain: B1 chain with S53R, H74L
B53: Q48V (designed binder)
chain: B1 chain with Q48V, H74L
B54: A42F (designed binder)
chain: B1 chain with A42F, H74L
B55: A83M (designed binder)
chain: B1 chain with H74L, A83M
B56: L27F (designed binder)
chain: B1 chain with L27F, H74L
B57: L41A (designed binder)
chain: B1 chain with L41A, H74L
B58: S53A (designed binder)
chain: B1 chain with S53A, H74L
B59: W70M (designed binder)
chain: B1 chain with W70M, H74L

Target: T1, TNFR1
Assay: yeast display SC50

Row | apparent Kd (screen) | Binder
1 | 0.79 nM | B1
2 | 0.539 nM | B2
3 | 0.718 nM | B3
4 | 0.956 nM | B4
5 | 0.539 nM | B5
6 | 1.27 nM | B6
7 | 0.446 nM | B7
8 | 0.49 nM | B8
9 | 24.4 nM | B9
10 | 1.27 nM | B10
11 | 0.718 nM | B11
12 | 0.539 nM | B12
13 | 0.539 nM | B13
14 | 0.869 nM | B14
15 | 0.653 nM | B15
16 | 0.869 nM | B16
17 | 11.4 nM | B17
18 | 1.27 nM | B18
19 | 2.25 nM | B19
20 | 0.653 nM | B20

Row | apparent Kd (screen) | Binder
21 | 0.593 nM | B21
22 | 0.539 nM | B22
23 | 0.653 nM | B23
24 | 0.718 nM | B24
25 | 0.49 nM | B25
26 | 0.593 nM | B26
27 | 0.79 nM | B27
28 | 0.956 nM | B28
29 | 0.446 nM | B29
30 | 0.49 nM | B30
31 | 0.539 nM | B31
32 | 5.84 nM | B32
33 | 0.653 nM | B33
34 | 2.73 nM | B34
35 | 2.05 nM | B35
36 | 0.49 nM | B36
37 | 0.653 nM | B37
38 | 0.718 nM | B38
39 | 22.2 nM | B39
40 | 0.49 nM | B40

Row | apparent Kd (screen) | Binder
41 | 0.718 nM | B41
42 | 0.539 nM | B42
43 | 0.49 nM | B43
44 | 0.405 nM | B44
45 | 0.869 nM | B45
46 | 0.49 nM | B46
47 | 1.86 nM | B47
48 | 0.446 nM | B48
49 | 0.956 nM | B49
50 | 1.05 nM | B50
51 | 0.718 nM | B51
52 | 2.05 nM | B52
53 | 1.27 nM | B53
54 | 3.3 nM | B54
55 | 0.593 nM | B55
56 | 0.446 nM | B56
57 | 2.48 nM | B57
58 | 0.956 nM | B58
59 | 13.8 nM | B59
